Measurements as given in PMC2937177.

Target: T1, KcsA (S. lividans), P0A334
T1 chain: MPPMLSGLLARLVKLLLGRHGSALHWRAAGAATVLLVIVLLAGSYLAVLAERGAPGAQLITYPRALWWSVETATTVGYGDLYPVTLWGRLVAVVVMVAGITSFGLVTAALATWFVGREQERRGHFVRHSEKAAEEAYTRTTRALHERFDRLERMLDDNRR
Assay: SDS-PAGE
Settings: remark: other sources report otherwise

B1: KcsA, P0A334 1-160 (natural protein)
chain: T1 chain
In the case of B1, the stoichiometry N is reported as 4.
